These are literature values, as cited in paper PMC4961565.

For orientation: pKa means the pH at which an ionisable group is half protonated.

The target of this data set is Asp309 (UniProt position 309, LIAAPDTMSVS). Put plainly: other.

Take “Cytochrome P450 19A1 (aromatase) (Homo sapiens)”: the pKa was 8.2.
